According to patent publication US20200283521A1:

Target: human FcRn (human) (UniProt P55899)
Assay: SPR steady state at pH 6, FcRn coupled

Kd [nM] | Substance
1180 | isotype control human IgG1 (antibody)
2600 | isotype control human IgG4 antibody
